One block for each substance: values may come before it.
Assays:
Assay in all cases: non-covalent nano-electrospray mass spectrometry at 0.01-10 µM, value at low concentrations; self-association
2F8-HG CH3 mutant F273A = target: 2F8-HG CH3 mutant F273A
2F8-HG-L236V = target: 2F8-HG-L236V
2F8-HG-Y275A = target: 2F8-HG-Y275A

percentage molecules present as monomers (2F8-HG CH3 mutant F273A): 100%
Substance: 2F8-HG CH3 mutant F273A (antibody)

percentage molecules present as monomers (2F8-HG-L236V): 100%
Substance: 2F8-HG-L236V (antibody)

percentage molecules present as monomers (2F8-HG-Y275A): 100%
Substance: 2F8-HG-Y275A (antibody)

From US20100255012A1
